Test: yeast display, Sf9 membrane polyspecificity reagent, FACS + sequencing; frameworks hold sequencing errors
How it was run: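 In a synthetic yeast display library (Saccharomyces cerevisiae BJ5465), nanobody expression was induced with galactose for 36–48 hours. FACS gates were set low and high (top ~1%) using anti-HA fluorescence for expression and streptavidin fluorescence for binding of the Sf9 membrane reagent. Each polyreactivity label is drawn from the gate of origin.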

Row | Sequence | polyreactivity (PSR sort gate)
1 | QVQLVESGGGLVQAGGSLRLSCAASGRTFYGYAMGWYRQAPGKERELVAAITRSGGSTYYADSVKGRFTISRDNAKNTVYLQMNSLKPEDTAVYYCAAGGQARHDYWGQGTQVTVSS | low polyreactivity
2 | QVQLVESGGGLVQAGGSLRLSCAASGRTFYGYAMGWYRQAPGKERELVASISRDGSTNDADSVKGRFTISRDNAKNTVYLQMNRLKPEDTEVYYCAADIWYYRYPIYYYSYDYWGQGTQVTVSS | low polyreactivity
3 | QVQLVESGGGLVQAGGSLRLSCAASGRTFYGYAMGWYRQAPGNERELVATITRRGGSTYYADSVKGRFRISRDNAKNTVYLQMNSLKPEDTAVYYCARQGDQYYRDGDDYWGQGTQVTVSS | high polyreactivity
4 | QVQLVESGGGLVQAGGSLRLSCAASGRTFYGYDMGWYRQAPGKERELVATISSGGSTNYADSVKGRFTISRDNAKNTVYLQMHSLKPEDTAVYYCIARRFSGYRKGLRPYGSGMNYWGQGTQVTVSS | low polyreactivity
5 | QVQLVESGGGLVQAGGSLRLSCAASGRTFYIYAMGWYRQAPGKERELVAAISTRDTRTYYADSVKGRFTISRDNAKNTVYLQMNSLKPEDTAVYYCAADAVDRDSDYWGQGTQVTVSS | high polyreactivity
6 | QVQLVESGGGLVQAGGSLRLSCAASGRTFYIYAMGWYRQAPGKERELVAAITRGGGSTSYADSVKGRFTISRDNAKNTVYLQMNSLKPEDTAVYYCAARYYFRWRRYDYWGQGTQVTVSS | high polyreactivity
7 | QVQLVESGGGLVQAGGSLRLSCAASGRTFYIYAMGWYRQAPGKERELVAAITWRGGRTYYADSVKGRFTISRDNAKNTVYLQMNSLKPVDTAVYYCNARSWYSFHPHDYWGQGTQVTVSS | high polyreactivity
8 | QVQLVESGGGLVQAGGSLRLSCAASGRTFYIYAMGWYRQAPGKERELVADITSGGSTYYADSVKGRFTISRDNAKNTVYLQMNSLKPEDTAVYYCAADWVTFYSYTEYDYWGQGTQVTVSS | low polyreactivity
9 | QVQLVESGGGLVQAGGSLRLSCAASGRTFYIYAMGWYRQAPGKERELVAGITYSGGRTYYADSVKGRFTISRDNAKNTVYLQMNSLKPEDTAVYYCAARPYLTTEGPYNYWGQGTQVTVSS | low polyreactivity
10 | QVQLVESGGGLVQAGGSLRLSCAASGRTFYIYAMGWYRQAPVKERELVAAITYGGGRTFYADSVKGRFTISRDNAKNTVYLKMNSLKPEDTAVYYCARGDFYYHSRYTYYTSDYWGQGTQVTVSS | high polyreactivity
11 | QVQLVESGGGLVQAGGSLRLSCAASGRTFYKYAMGWYRPAPGKERELVAAISGSGGGTYYADSVKGRFTISRDNAKNTVYLQMNSLKPEDTAVYYCAAVYLYYAYAFDYWGQGTHVTVSS | high polyreactivity
12 | QVQLVESGGGLVQAGGSLRLSCAASGRTFYKYAMGWYRQAPGKERELVAAISKSGGRTYYADSVKGRFTISRDNAKNTVYLQLNSLKPEDTAVYYCAAEPFIPDQSRYYYWGQGTQVTVSS | high polyreactivity
13 | QVQLVESGGGLVQAGGSLRLSCAASGRTFYLNAMGWYRQAPGKERQLVAVISYRGDSTYADSVKGRFTISRDNAKNTVYLQMNSLKPEDTAVYYCAADLTRYHYRYLVTHWWYDYWGQGTQVTVSS | low polyreactivity
14 | QVQLVESGGGLVQAGGSLRLSCAASGRTFYLYTMGWYRQAPGKERELVAAINGSGGSTYYADSVKGRFTISRDNAKNTVYLQMNSLKPEATAVYYCAVLYRYGYDYWGQGTQVTVSS | low polyreactivity
15 | QVQLVESGGGLVQAGGSLRLSCAASGRTFYNAMGWYRQAPGKERELVAGIRWSGASTYYADSVKGRFTISRDNAKNTVYLQMNSLKPEDTAVYYCAARRHSTRLRLTYDYWGQGTQVTVSS | high polyreactivity
16 | QVQLVESGGGLVQAGGSLRLSCAASGRTFYNNAMGWYRPAPGKERELVAVISGRGGSTYYADSVKGRFTISRDNAKNTVYLQMNSLKPEDTAVYYCAAGYTRPWRFTYYYWGQGTQVTVSS | high polyreactivity
17 | QVQLVESGGGLVQAGGSLRLSCAASGRTFYNTMGLYRQAPGKERELVAAISRGGITNYADSVKGRFTISRDSAKNTGDLQMHSLKPEDTAVYYCNAEPKRYYYYYKFDSWGQGTQVTVSS | high polyreactivity
